Experimental data published in US6645733B1, “Fluorescent intensity method for assaying binding between proteins or peptides” (Ingeneus Corporation, priority 1999, dated 2003).
No end group written: not given here.

Biological target: T1, human AT1 receptor (Homo sapiens, UniProt P30556)
T1 construct: purchased NEN Life Science Products Inc., Boston, Mass; host or cells: Chinese hamster ovary (CHO) cells, purified membrane preparation
T1 sequence (P30556 1-359): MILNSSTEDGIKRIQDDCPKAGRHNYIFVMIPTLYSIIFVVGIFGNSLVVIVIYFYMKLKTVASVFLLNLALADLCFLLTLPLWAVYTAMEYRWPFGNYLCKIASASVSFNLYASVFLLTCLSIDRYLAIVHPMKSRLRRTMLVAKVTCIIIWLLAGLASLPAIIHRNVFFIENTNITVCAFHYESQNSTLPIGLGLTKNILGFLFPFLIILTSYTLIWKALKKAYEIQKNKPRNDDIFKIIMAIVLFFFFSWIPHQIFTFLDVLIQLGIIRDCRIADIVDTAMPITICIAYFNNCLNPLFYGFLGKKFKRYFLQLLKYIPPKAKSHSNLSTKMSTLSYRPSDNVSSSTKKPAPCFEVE
Assay: Competition binding experiment: displacement of wildtype Flu-AII from AT1 receptor by unlabeled ligand
Conditions: all twelve concentrations 1 nM to 300 μM, 10 nM Flu-AII, 0.02 units AT1 receptor (data not shown)

Sequence: MLGFFQQPKPR [substance P]
- displacement of Flu-AII binding to AT1 receptor: unable to displace
